In publication PMC9583936 (Biochemistry, 2022):
Like-named read-outs stand apart in the source and are kept apart here. *1 amine or outer side, *2 acyl side, *3 side chain or, on linkers, in order; H or OH if unused. Where no end group is shown, it is not given here. [ ]: non-standard residue; d: D form. Leu(4-F) = γ-19F-leucine (4-fluoro-leucine), CC(C)(F)C[C@H](N[*:1])C(=O)[*:2]; Phe(4-F) = N[C@@H](Cc1ccc(F)cc1)C(=O)O

B1: 4-19F-Phe23 labeled ETM (transmembrane domain of the SARS-CoV-2 envelope protein, residues 8-38) (peptide)
peptide: ETGTLIVNSVLLFLA[Phe(4-F)]VVFLLVTLAILTALR-NH2
modifications: N-terminus assumed
SMILES: CC[C@H](C)[C@H](NC(=O)[C@H](C)NC(=O)[C@H](CC(C)C)NC(=O)[C@@H](NC(=O)[C@@H](NC(=O)[C@H](CC(C)C)NC(=O)[C@H](CC(C)C)NC(=O)[C@H](Cc1ccccc1)NC(=O)[C@@H](NC(=O)[C@@H](NC(=O)[C@H](Cc1ccc(F)cc1)NC(=O)[C@H](C)NC(=O)[C@H](CC(C)C)NC(=O)[C@H](Cc1ccccc1)NC(=O)[C@H](CC(C)C)NC(=O)[C@H](CC(C)C)NC(=O)[C@@H](NC(=O)[C@H](CO)NC(=O)[C@H](CC(N)=O)NC(=O)[C@@H](NC(=O)[C@@H](NC(=O)[C@H](CC(C)C)NC(=O)[C@@H](NC(=O)CNC(=O)[C@@H](NC(=O)[C@@H](N)CCC(=O)O)[C@@H](C)O)[C@@H](C)O)[C@@H](C)CC)C(C)C)C(C)C)C(C)C)C(C)C)C(C)C)[C@@H](C)O)C(=O)N[C@@H](CC(C)C)C(=O)N[C@H](C(=O)N[C@@H](C)C(=O)N[C@@H](CC(C)C)C(=O)N[C@@H](CCCNC(=N)N)C(N)=O)[C@@H](C)O
B2: γ-19F-Leu18 labeled ETM (transmembrane domain of the SARS-CoV-2 envelope protein, residues 8-38) (peptide)
peptide: Ac-ETGTLIVNSV[Leu(4-F)]LFLAFVVFLLVTLAILTALR-NH2
SMILES: CC[C@H](C)[C@H](NC(=O)[C@H](C)NC(=O)[C@H](CC(C)C)NC(=O)[C@@H](NC(=O)[C@@H](NC(=O)[C@H](CC(C)C)NC(=O)[C@H](CC(C)C)NC(=O)[C@H](Cc1ccccc1)NC(=O)[C@@H](NC(=O)[C@@H](NC(=O)[C@H](Cc1ccccc1)NC(=O)[C@H](C)NC(=O)[C@H](CC(C)C)NC(=O)[C@H](Cc1ccccc1)NC(=O)[C@H](CC(C)C)NC(=O)[C@H](CC(C)(C)F)NC(=O)[C@@H](NC(=O)[C@H](CO)NC(=O)[C@H](CC(N)=O)NC(=O)[C@@H](NC(=O)[C@@H](NC(=O)[C@H](CC(C)C)NC(=O)[C@@H](NC(=O)CNC(=O)[C@@H](NC(=O)[C@H](CCC(=O)O)NC(C)=O)[C@@H](C)O)[C@@H](C)O)[C@@H](C)CC)C(C)C)C(C)C)C(C)C)C(C)C)C(C)C)[C@@H](C)O)C(=O)N[C@@H](CC(C)C)C(=O)N[C@H](C(=O)N[C@@H](C)C(=O)N[C@@H](CC(C)C)C(=O)N[C@@H](CCCNC(=N)N)C(N)=O)[C@@H](C)O

Tests used:
[1] = target: the molecule itself; test: 19F solid-state NMR CODEX
[2] = target: the molecule itself; test: 19F solid-state NMR CODEX; remark: listed apart in the source

Protein | stoichiometry N [1] | stoichiometry N [2]
B1 | 5 | –
B2 | 5 | –
ETGTLIVNSVLL[Phe(4-F)]LAFVVFLLVTLAILTALR [4-19F-Phe20 labeled ETM (transmembrane domain of the SARS-CoV-2 envelope protein)] | – | 5
